Test results taken from publication PMC8239462 (The Journal of Biological Chemistry, 2021).
Where “and” joins values, the source holds several entries; their conditions need not be identical. Equal entries are not always repeated. Where two headings read alike, the source gives them in different places.

Assays:
Test in all cases: SPR
[1] = target: T1, LRP1 cluster II (CR.3–10), recombinant, secreted from Sf9 cells (human, UniProt Q07954 852-1182)
T1 sequence: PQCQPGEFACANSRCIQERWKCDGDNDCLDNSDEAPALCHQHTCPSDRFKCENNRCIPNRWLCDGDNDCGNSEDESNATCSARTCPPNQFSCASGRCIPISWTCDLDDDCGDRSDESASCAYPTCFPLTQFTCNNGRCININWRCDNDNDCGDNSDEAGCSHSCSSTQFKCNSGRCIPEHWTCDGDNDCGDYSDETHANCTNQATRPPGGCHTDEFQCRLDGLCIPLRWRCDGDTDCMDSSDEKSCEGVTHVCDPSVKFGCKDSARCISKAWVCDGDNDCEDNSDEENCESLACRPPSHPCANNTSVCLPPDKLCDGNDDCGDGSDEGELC

[2] = target: T1, LRP1 cluster II (CR.3–10), recombinant, …; remark: listed apart in the source
[3] = target: T1, LRP1 cluster II (CR.3–10), recombinant, …; remark: listed apart in the source
[4] = target: LRP1 cluster IV (CR.21–31), recombinant, secreted from Sf9 cells (human, UniProt Q07954 3332-3778)
Sequence of LRP1 cluster IV (CR.21–31), recombinant, secreted from Sf9 cells (Q07954 3332-3778): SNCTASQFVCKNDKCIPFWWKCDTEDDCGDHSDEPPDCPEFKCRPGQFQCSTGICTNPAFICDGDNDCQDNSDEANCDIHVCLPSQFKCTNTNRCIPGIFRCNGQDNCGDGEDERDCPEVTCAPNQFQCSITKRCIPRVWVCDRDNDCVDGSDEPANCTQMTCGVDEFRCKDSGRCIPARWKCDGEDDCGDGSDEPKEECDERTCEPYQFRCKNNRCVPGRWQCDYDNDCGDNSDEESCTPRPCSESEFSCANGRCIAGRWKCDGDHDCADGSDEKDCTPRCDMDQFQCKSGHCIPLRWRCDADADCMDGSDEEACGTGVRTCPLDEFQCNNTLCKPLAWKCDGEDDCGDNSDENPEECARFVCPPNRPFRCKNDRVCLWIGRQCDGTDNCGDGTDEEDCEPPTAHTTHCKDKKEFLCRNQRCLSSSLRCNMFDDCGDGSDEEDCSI

B1: RAP (commercial; R&D, 4296-LR) (natural protein, human)
chain: YSREKNQPKPSPKRESGEEFRMEKLNQLWEKAQRLHLPPVRLAELHADLKIQERDELAWKKLKLDGLDEDGEKEARLIRNLNVILAKYGLDGKKDARQVTSNSLSGTQEDGLDDPRLEKLWHKAKTSGKFSGEELDKLWREFLHHKEKVHEYNVLLETLSRTEEIHENVISPSDLSDIKGSVLHSRHTELKEKLRSINQGLDRLRRVSHQGYSTEAEFEEPRVIDLWDLAQSANLTDKELEAFREELKHFEAKIEKHNHYQKQLEIAHEKLRHAESVGDGERVSRSREKHALLEGRTKELGYTVKKHLQDLSGRISRARHNEL
Kd [1]: 2.66 nM
Kd [2]: 1.67 nM and 1.2 nM
Kd [3]: 1.97 nM and 2.4 nM
Kd [4]: 1.4 nM
